Test results: patent publication US20240376208A1 (AFFIMED, published 2024)

B1: aBi-scDb-Fc_01 (bispecific antibody)
chain 1: SYVLTQPSSVSVAPGQTATISCGGHNIGSKNVHWYQQRPGQSPVLVIYQDNKRPSGIPERFSGSNSGNTATLTISGTQAMDEADYYCQVWDNYSVLFGGGTKLTVLGGSGGSQVQLVQSGAEVKKPGESLKVSCKASGYTFTSYYMHWVRQAPGQGLEWMGAIEPMYGSTSYAQKFQGRVTMTRDTSTSTVYMELSSLRSEDTAVYYCARGSAYYYDFADYWGQGTLVTVSSGGSGGSGGSGGSGGSGGSSYVLTQPSSVSVAPGQTATISCGGHNIGSKNVHWYQQRPGQSPVLVIYQDNKRPSGIPERFSGSNSGNTATLTISGTQAMDEADYYCQVWDNYSVLFGGGTKLTVLGGSGGSQVQLVQSGAEVKKPGESLKVSCKASGYTFTSYYMHWVRQAPGQGLEWMGAIEPMYGSTSYAQKFQGRVTMTRDTSTSTVYMELSSLRSEDTAVYYCARGSAYYYDFADYWGQGTLVTVSSGGGGSDKTHTCPPCPAPEFEGGPSVFLFPPKPKDTLMISRTPEVTCVVVAVSHEDPEVKFNWYVDGVEVHNAKTKPREEQYNSTYRVVSVLTVLHQDWLNGKEYKCKVSNKALPAPIEKTISKAKGQPREPQVYTLPPSREEMTKNQVSLTCLVKGFYPSDIAVEWESNGQPENNYKTTPPVLDSDGSFFLTSKLTVDKSRWQQGNVFSCSVMHEALHNHYTQKSLSLSPGAAAGSHHHHHH
chain 2: SYVLTQPSSVSVAPGQTATISCGGHNIGSKNVHWYQQRPGQSPVLVIYQDNKRPSGIPERFSGSNSGNTATLTISGTQAMDEADYYCQVWDNYSVLFGGGTKLTVLGGSGGSQVQLVQSGAEVKKPGESLKVSCKASGYTFTSYYMHWVRQAPGQGLEWMGAIEPMYGSTSYAQKFQGRVTMTRDTSTSTVYMELSSLRSEDTAVYYCARGSAYYYDFADYWGQGTLVTVSSGGSGGSGGSGGSGGSGGSSYVLTQPSSVSVAPGQTATISCGGHNIGSKNVHWYQQRPGQSPVLVIYQDNKRPSGIPERFSGSNSGNTATLTISGTQAMDEADYYCQVWDNYSVLFGGGTKLTVLGGSGGSQVQLVQSGAEVKKPGESLKVSCKASGYTFTSYYMHWVRQAPGQGLEWMGAIEPMYGSTSYAQKFQGRVTMTRDTSTSTVYMELSSLRSEDTAVYYCARGSAYYYDFADYWGQGTLVTVSSGGGGSDKTHTCPPCPAPEFEGGPSVFLFPPKPKDTLMISRTPEVTCVVVAVSHEDPEVKFNWYVDGVEVHNAKTKPREEQYNSTYRVVSVLTVLHQDWLNGKEYKCKVSNKALPAPIEKTISKAKGQPREPQVYTLPPSREEMTKNQVSLYCLVKGFYPSDIAVEWESNGQPENNYKTTPPVLDSDGSFFLYSKLTVDKSRWQQGNVFSCSVMHEALHNHYTQKSLSLSPGGGGGSGGGGSEVQLLESGGGLVQPGGSLRLSCAASGFTFSNYDMAWVRQAPGKGLEWVSSISTRGDITSYRDSVKGRFTISRDNSKNTLYLQMNSLRAEDTAVYYCARQDYYTDYMGFAYWGQGTLVTVSSGGGGSGGGGSGGGGSAIQMTQSPSSLSASVGDRVTITCRASEDIYNGLAWYQQKPGKAPKLLIYGASSLQDGVPSRFSGSGSGTEFTLTISSLQPEDEATYYCAGPHKYPLTFGGGTKVEIK
B2: aBi-scDb-Fc_03 (bispecific antibody)
chain 1: DKTHTCPPCPAPEFEGGPSVFLFPPKPKDTLMISRTPEVTCVVVAVSHEDPEVKFNWYVDGVEVHNAKTKPREEQYNSTYRVVSVLTVLHQDWLNGKEYKCKVSNKALPAPIEKTISKAKGQPREPQVYTLPPSREEMTKNQVSLTCLVKGFYPSDIAVEWESNGQPENNYKTTPPVLDSDGSFFLTSKLTVDKSRWQQGNVFSCSVMHEALHNHYTQKSLSLSPGGGGGSGGGGSSYVLTQPSSVSVAPGQTATISCGGHNIGSKNVHWYQQRPGQSPVLVIYQDNKRPSGIPERFSGSNSGNTATLTISGTQAMDEADYYCQVWDNYSVLFGGGTKLTVLGGSGGSQVQLVQSGAEVKKPGESLKVSCKASGYTFTSYYMHWVRQAPGQGLEWMGAIEPMYGSTSYAQKFQGRVTMTRDTSTSTVYMELSSLRSEDTAVYYCARGSAYYYDFADYWGQGTLVTVSSGGSGGSGGSGGSGGSGGSSYVLTQPSSVSVAPGQTATISCGGHNIGSKNVHWYQQRPGQSPVLVIYQDNKRPSGIPERFSGSNSGNTATLTISGTQAMDEADYYCQVWDNYSVLFGGGTKLTVLGGSGGSQVQLVQSGAEVKKPGESLKVSCKASGYTFTSYYMHWVRQAPGQGLEWMGAIEPMYGSTSYAQKFQGRVTMTRDTSTSTVYMELSSLRSEDTAVYYCARGSAYYYDFADYWGQGTLVTVSSAAAGSHHHHHH
chain 2: B1 chain 2
B3: scFv-IgAb_167 (bispecific antibody)
heavy: QVQLQESGPGLVKPSETLSLTCTVSGGSVSSGSYYWSWIRQPPGKGLEWIGYIYYSGSTNYNPSLKSRVTISVDTSKNQFSLKLSSVTAADTAVYYCARNPISIPAFDIWGQGTMVTVSSASTKGPSVFPLAPSSKSTSGGTAALGCLVKDYFPEPVTVSWNSGALTSGVHTFPAVLQSSGLYSLSSVVTVPSSSLGTQTYICNVNHKPSNTKVDKKVEPKSCDKTHTCPPCPAPEFEGGPSVFLFPPKPKDTLMISRTPEVTCVVVAVSHEDPEVKFNWYVDGVEVHNAKTKPREEQYNSTYRVVSVLTVLHQDWLNGKEYKCKVSNKALPAPIEKTISKAKGQPREPQVYTLPPSREEMTKNQVSLTCLVKGFYPSDIAVEWESNGQPENNYKTTPPVLDSDGSFFLYSKLTVDKSRWQQGNVFSCSVMHEALHNHYTQKSLSLSPGGGGGSGGGGSGGGGSGGGGSGGGGSGGGGSSYVLTQPSSVSVAPGQTARITCGGNNIGSKSVHWYQQKPGQAPVLVIYQDKKRPSGIPERFSGSNSGNTATLTISGTQAMDEADYYCQVWDDYIVLFGGGTKLTVLGGSGGSGGSGGSGGSGGSGGSQVQLVQSGAEVKKPGESLKVSCKASGYTFTNYYMQWVRQAPGQGLEWMGIINPSGGVTSYAQKFQGRVTMTRDTSTSTVYMELSSLRSEDTAVYYCARGSAYYYDFADYWGQGTLVTVSS
light: QPVLTQPPSVSVAPGKTARITCGGNNIGSKSVHWYQQKPGQAPVLVIYYDSDRPSGIPERFSGSNSGNTATLTISRVEAGDEADYYCQVWDTSSDHVLFGGGTKLTVLGQPKAAPSVTLFPPSSEELQANKATLVCLISDFYPGAVTVAWKADSSPVKAGVETTTPSKQSNNKYAASSYLSLTPEQWKSHRSYSCQVTHEGSTVEKTVAPTECS

Key:
Assay in all cases: cell-based or functional assay
[1] = target: T1, BCMA on MM.1S target cells (UniProt Q02223 1-184, limits assumed)
T1 sequence (looked up): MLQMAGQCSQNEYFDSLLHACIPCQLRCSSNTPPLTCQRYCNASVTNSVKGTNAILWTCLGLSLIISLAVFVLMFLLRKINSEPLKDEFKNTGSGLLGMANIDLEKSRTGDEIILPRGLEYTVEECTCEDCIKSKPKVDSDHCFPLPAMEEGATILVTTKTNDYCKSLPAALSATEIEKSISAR

[2] = target: T2, EGFR on tumor target cells (MCF-7, Daudi, DK-MG, HCT-116) (UniProt P00533 25-1210, limits assumed)
[3] = target: T2, EGFR on tumor target cells (MCF-7, …); remark: listed apart in the source
[4] = target: CD16A on primary human NK cells (human, UniProt P08637 17-254)
Sequence of CD16A on primary human NK cells (P08637 17-254 limits assumed): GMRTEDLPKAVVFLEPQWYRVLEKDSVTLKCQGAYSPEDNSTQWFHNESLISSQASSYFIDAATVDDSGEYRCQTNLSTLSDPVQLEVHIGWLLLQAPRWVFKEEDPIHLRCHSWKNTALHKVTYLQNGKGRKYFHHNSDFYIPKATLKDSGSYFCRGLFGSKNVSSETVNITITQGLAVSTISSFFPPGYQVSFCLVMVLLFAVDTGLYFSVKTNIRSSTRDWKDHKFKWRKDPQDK

Binder	EC50 [pM], 4 h calcein-release cytotoxicity on BCMA+ MM.1S target cells, NK cells E:T 5:1 [1] [pM]	Emax [%], 4 h calcein-release cytotoxicity on BCMA+ MM.1S target cells, NK cells E:T 5:1 [1] [%]	EC50 [pM], 4 h calcein-release cytotoxicity on MCF-7 target cells, NK cells E:T 5:1 [2] [pM]	Emax [%], 4 h calcein-release cytotoxicity on MCF-7 target cells, NK cells E:T 5:1 [2] [%]	EC50 [pM], 4 h calcein-release cytotoxicity on Daudi target cells, NK cells E:T 5:1 [3] [pM]	Emax [%], 4 h calcein-release cytotoxicity on Daudi target cells, NK cells E:T 5:1 [3] [%]	Emax [%], 4 h calcein-release NK cell fratricide assay, E:T 1:1 [4] [%]
B1	1	46.4					
B2	2.4	51					
B3			8.8	17.9	46.8	8	2.8
